Data set [1] concerns the target recombinant listeriolysin O (without the signal sequence, 25-529) (Listeria monocytogenes 10403S) (UniProt P13128). In words: ITC; pH 6.5, 25°C; PrsA2 (19.0 µM) or mutant titrated into LLO (0.4 µM); 20 mM MES, 100 mM NaCl, 1 mM β-mercaptoethanol, 10% glycerol; independent binding model; n counts PrsA2 monomers per LLO.
The target is the same in data set [2]. The experiment in a line: MST; pH 6.5, 25°C; NHS-dye-labelled PrsA2 or mutant (20-150 nM) with serially diluted unlabelled LLO; 20 mM MES, 100 mM NaCl, 1 mM β-mercaptoethanol, 10% glycerol, 0.05% Tween 20; 1:1 model in PALMIST.
For data set [3], the target named is T1, recombinant listeriolysin O (without the signal sequence, 25-529) (Listeria monocytogenes 10403S, UniProt P13128 25-529).
T1 construct: also called LLO; source: E. coli BL21 (DE3*), purified (nickel-NTA, dialysis)
In words: ITC; pH 5.5, 25°C; PrsA2 titrated into LLO; 20 mM MES, 100 mM NaCl, 1 mM β-mercaptoethanol, 10% glycerol; independent binding model; n counts PrsA2 monomers per LLO. The conditions noted are these: both partners purified.

In data set [4] the target is T1, recombinant listeriolysin O (without …). In words: ITC; pH 5.5, 37°C; PrsA2 titrated into LLO; 20 mM MES, 100 mM NaCl, 1 mM β-mercaptoethanol, 10% glycerol; independent binding model; n counts PrsA2 monomers per LLO. The conditions noted are these: both partners purified.
The target is the same in data set [5]. In words: ITC; pH 6.5, 37°C; PrsA2 titrated into LLO; 20 mM MES, 100 mM NaCl, 1 mM β-mercaptoethanol, 10% glycerol; independent binding model; n counts PrsA2 monomers per LLO. The conditions noted are these: both partners purified.
For data set [6] the target is unchanged. The experiment in a line: ITC; pH 7.4, 25°C; PrsA2 titrated into LLO; 20 mM MES, 100 mM NaCl, 1 mM β-mercaptoethanol, 10% glycerol; independent binding model; n counts PrsA2 monomers per LLO. Particulars: both partners purified.
Data set [7] deals with the molecule itself. In words: cross-linking; 500 ng His-tagged protein with 10 µM BS3 for 1 hour at room temperature in 20 mM HEPES, 200 mM NaCl, pH 6.5; heated at 85°C, SDS-PAGE, anti-His Western blot.
For data set [8], the target named is T1, recombinant listeriolysin O (without …). The experiment in a line: ITC; pH 6.5, 25°C; PrsA2 (19.0 µM) or mutant titrated into LLO (0.4 µM); 20 mM MES, 100 mM NaCl, 1 mM β-mercaptoethanol, 10% glycerol; independent binding model; n counts PrsA2 monomers per LLO. The conditions noted are these: both partners purified.
The target is the same in data set [9]. The experiment in a line: MST; pH 5.5, 25°C; NHS-dye-labelled PrsA2 (20-150 nM) with serially diluted unlabelled LLO; 20 mM MES, 100 mM NaCl, 1 mM β-mercaptoethanol, 10% glycerol, 0.05% Tween 20; 1:1 model in PALMIST. The conditions noted are these: both partners purified.
Data set [10] has the same target. The experiment in a line: MST; pH 5.5, 37°C; NHS-dye-labelled PrsA2 (20-150 nM) with serially diluted unlabelled LLO; 20 mM MES, 100 mM NaCl, 1 mM β-mercaptoethanol, 10% glycerol, 0.05% Tween 20; 1:1 model in PALMIST. The conditions noted are these: both partners purified.
The target is the same in data set [11]. The experiment in a line: MST; pH 6.5, 37°C; NHS-dye-labelled PrsA2 (20-150 nM) with serially diluted unlabelled LLO; 20 mM MES, 100 mM NaCl, 1 mM β-mercaptoethanol, 10% glycerol, 0.05% Tween 20; 1:1 model in PALMIST. The conditions noted are these: both partners purified.
Data set [12] has the same target. In words: MST; pH 7.4, 25°C; NHS-dye-labelled PrsA2 (20-150 nM) with serially diluted unlabelled LLO; 20 mM MES, 100 mM NaCl, 1 mM β-mercaptoethanol, 10% glycerol, 0.05% Tween 20; 1:1 model in PALMIST. The conditions noted are these: both partners purified.
Data set [13] has the same target. In words: MST; pH 7.4, 37°C; NHS-dye-labelled PrsA2 (20-150 nM) with serially diluted unlabelled LLO; 20 mM MES, 100 mM NaCl, 1 mM β-mercaptoethanol, 10% glycerol, 0.05% Tween 20; 1:1 model in PALMIST. The conditions noted are these: both partners purified.
Data set [14] has the same target. In words: ITC; pH 6.5, 25°C; PrsA2 (19.0 µM) or mutant titrated into LLO (0.4 µM); 20 mM MES, 100 mM NaCl, 1 mM β-mercaptoethanol, 10% glycerol; independent binding model; n counts PrsA2 monomers per LLO. The conditions noted are these: both partners purified. This is another data set of the same source.
Data set [15] shares this target. The experiment in a line: MST; pH 6.5, 25°C; NHS-dye-labelled PrsA2 or mutant (20-150 nM) with serially diluted unlabelled LLO; 20 mM MES, 100 mM NaCl, 1 mM β-mercaptoethanol, 10% glycerol, 0.05% Tween 20; 1:1 model in PALMIST. The conditions noted are these: both partners purified.
The target is the same in data set [16]. In words: ITC; pH 7.4, 37°C; PrsA2 titrated into LLO at low LLO concentrations to mitigate heats of self-aggregation; 20 mM MES, 100 mM NaCl, 1 mM β-mercaptoethanol, 10% glycerol; independent binding model; n counts PrsA2 monomers per LLO. Particulars: both partners purified.
Data set [17] shares this target. In words: cell-based or functional assay.
For data set [18] the target is unchanged. The experiment in a line: ITC; pH 6.5, 25°C; PrsA2 (19.0 µM) or mutant titrated into LLO (0.4 µM); 20 mM MES, 100 mM NaCl, 1 mM β-mercaptoethanol, 10% glycerol; independent binding model; n counts PrsA2 monomers per LLO. Particulars: both partners purified. This is another data set of the same source.
For data set [19] the target is unchanged. The experiment in a line: MST; pH 6.5, 25°C; NHS-dye-labelled PrsA2 or mutant (20-150 nM) with serially diluted unlabelled LLO; 20 mM MES, 100 mM NaCl, 1 mM β-mercaptoethanol, 10% glycerol, 0.05% Tween 20; 1:1 model in PALMIST. The conditions noted are these: both partners purified. This is another data set of the same source.
The target is the same in data set [20]. The description is as above. Particulars: both partners purified. The source holds these as a separate data set.

Consider “PrsA2 N+C (foldase domain only, lacks the entire PPIase domain) (from UniProt Q8Y557 21-293) (domain or fragment)”, for which, in data set [1], the Kd is 357 nM, the dH was -16.6 kcal/mol and the stoichiometry N worked out at 2.08. The Kd in data set [2] is 330 nM.

B1: recombinant PrsA2 (wild type, without the signal sequence) (natural protein)
chain: CGGGGDVVKTDSGDVTKDELYDAMKDKYGSEFVQQLTFEKILGDKYKVSDEDVDKKFNEYKSQYGDQFSAVLTQSGLTEKSFKSQLKYNLLVQKATEANTDTSDKTLKKYYETWQPDITVSHILVADENKAKEVEQKLKDGEKFADLAKEYSTDTATKDNGGQLAPFGPGKMDPAFEKAAYALKNKGDISAPVKTQYGYHIIQMDKPATKTTFEKDKKAVKASYLESQLTTENMQKTLKKEYKDANVKVEDKDLKDAFKDFDGSSSSDSDSSK
notes: also called Lm PrsA2; pQE60-prsA2; source: E. coli BL21 (DE3*), purified (nickel-NTA, dialysis)
As to B1, the Kd was found to be 201 nM in data set [3]; 330 nM in [4]; 88.3 nM in data set [5]; 46.1 nM in data set [6]; 37.8 nM in data set [8]; 150 nM in data set [9]. For the same molecule, the Kd in data set [10] came out at 190 nM; in data set [11], 28 nM; in data set [12], 23 nM; in data set [13], 39 nM; in [14], 37.7 nM; in data set [15], 12 nM. The Kd in data set [16] amounted to 67.2 nM. Also, the dH in data set [3] was -7.93 kcal/mol; in data set [4] it was -5.49 kcal/mol; in data set [5] it was -30.9 kcal/mol; in data set [6], -21.7 kcal/mol; in data set [14], -105 kcal/mol; in data set [16], -12.8 kcal/mol. The “stoichiometry N” value turned out to be 1.96 in [3]; 1.95 in [4]; 1.73 in data set [5]; 2.11 in data set [6]; 2 in data set [7]; 2.21 in data set [14]. Further, the “stoichiometry N” value in data set [16] worked out at 2.01. Besides, the Ka in data set [8] is 2.65e+07 M⁻¹.

B2: PrsA2 V91T (natural protein, Listeria monocytogenes, UniProt Q8Y557 21-293, looked up)
chain: CGGGGDVVKTDSGDVTKDELYDAMKDKYGSEFVQQLTFEKILGDKYKVSDEDVDKKFNEYKSQYGDQFSATLTQSGLTEKSFKSQLKYNLLVQKATEANTDTSDKTLKKYYETWQPDITVSHILVADENKAKEVEQKLKDGEKFADLAKEYSTDTATKDNGGQLAPFGPGKMDPAFEKAAYALKNKGDISAPVKTQYGYHIIQMDKPATKTTFEKDKKAVKASYLESQLTTENMQKTLKKEYKDANVKVEDKDLKDAFKDFDGSSSSDSDSSK
modifications: Red NHS dye (NanoTemper 2nd Generation) on primary amines, in the MST experiments only
notes: Same limits and tag as m1; also called foldase domain mutant; source: E. coli BL21 (DE3*), purified (nickel-NTA, dialysis)
For B2, in [17], the “LLO hemolytic activity at pH 5.5 and 30°C after 1 hour at pH 7.4 and 37°C with the chaperone mutant at a 30:1 molar ratio (protection assay), against wild-type PrsA2 or PrsA2 N+C” value is around 2 fold. Further, in [18], the Kd is 9.64 nM, the dH is -4.21 kcal/mol and the “stoichiometry N” value is 2.11. The equilibrium dissociation constant (Kd) in [19] was found to be 2.8 nM.

B3: PrsA2 No dimer mutant/PrsA2^M (V28A/L40A/Y41A/M44A) (natural protein, Listeria monocytogenes, UniProt Q8Y557 21-293, looked up)
chain: CGGGGDVAKTDSGDVTKDEAADAAKDKYGSEFVQQLTFEKILGDKYKVSDEDVDKKFNEYKSQYGDQFSAVLTQSGLTEKSFKSQLKYNLLVQKATEANTDTSDKTLKKYYETWQPDITVSHILVADENKAKEVEQKLKDGEKFADLAKEYSTDTATKDNGGQLAPFGPGKMDPAFEKAAYALKNKGDISAPVKTQYGYHIIQMDKPATKTTFEKDKKAVKASYLESQLTTENMQKTLKKEYKDANVKVEDKDLKDAFKDFDGSSSSDSDSSK
modifications: Red NHS dye (NanoTemper 2nd Generation) on primary amines, in the MST experiments only
notes: Same limits and tag as m1; also called PrsA2 monomer; PrsA2 dimer mutant; source: E. coli BL21 (DE3*), purified (nickel-NTA, dialysis)
For B3, the “LLO hemolytic activity at pH 5.5 and 30°C after 1 hour at pH 7.4 and 37°C with the chaperone mutant at a 30:1 molar ratio (protection assay), against wild-type PrsA2 or PrsA2 N+C” value in data set [17] is around 2 fold. In addition, in data set [18], the Kd was 206 nM, the dH was -21.3 kcal/mol and the “stoichiometry N” value amounted to 2.06. In data set [20], the Kd is around 330 nM. Also, in data set [19], the dissociation constant Kd turned out to be 190 nM.

For the origin of these results see paper PMC11253611, “The chaperone PrsA2 regulates the secretion, stability, and folding of listeriolysin O during Listeria monocytogenes infection” (mBio, 2024).
